Assay results from patent US20210388087A1 (Chugai, published 2021).
Substitutions are numbered along the chain they refer to. Names may count otherwise.

B1: dBBDu183H P61E/dBBDu072L (antibody, name in Kabat numbering, V domains shown)
VH: QVQLVESGGGLVQPGRSLRLSCAASGFTFSNAWMHWVRQAPGKGLEWVAQIKDKGNAYAAYYAESVKGRFTISRDDSKNSIYLQMNSLKTEDTAVYYCHYVHYASASTVLPAFGVDAWGQGTTVTVSS
VL: DIVMTQSPLSLPVTPGEPASISCQASQELVHMNRNTYLHWYQQKPGQAPRLLIYKVSNRFPGVPDRFSGSGSGTDFTLKISRVEAEDVGVYYCAQGTSVPFTFGQGTKLEIK
B2: dBBDu183H P61F/dBBDu072L (antibody, name in Kabat numbering, V domains shown)
VH: B1 VH with E64F
VL: B1 VL
B3: dBBDu183H P61G/dBBDu072L (antibody, name in Kabat numbering, V domains shown)
VH: B1 VH with E64G
VL: B1 VL
B4: dBBDu183H P61H/dBBDu072L (antibody, name in Kabat numbering, V domains shown)
VH: B1 VH with E64H
VL: B1 VL
B5: dBBDu183H P61K/dBBDu072L (antibody, name in Kabat numbering, V domains shown)
VH: B1 VH with E64K
VL: B1 VL
B6: dBBDu183H P61N/dBBDu072L (antibody, name in Kabat numbering, V domains shown)
VH: B1 VH with E64N
VL: B1 VL
B7: dBBDu183H P61Q/dBBDu072L (antibody, name in Kabat numbering, V domains shown)
VH: B1 VH with E64Q
VL: B1 VL
B8: dBBDu183H P61R/dBBDu072L (antibody, name in Kabat numbering, V domains shown)
VH: B1 VH with E64R
VL: B1 VL
B9: dBBDu183H P61S/dBBDu072L (antibody, name in Kabat numbering, V domains shown)
VH: B1 VH with E64S
VL: B1 VL
B10: dBBDu183H P61T/dBBDu072L (antibody, name in Kabat numbering, V domains shown)
VH: B1 VH with E64T
VL: B1 VL
B11: dBBDu183H P61W/dBBDu072L (antibody, name in Kabat numbering, V domains shown)
VH: B1 VH with E64W
VL: B1 VL
B12: dBBDu183H P61Y/dBBDu072L (antibody, name in Kabat numbering, V domains shown)
VH: B1 VH with E64Y
VL: B1 VL
B13: dBBDu183H P100eD/dBBDu072L (antibody, name in Kabat numbering, V domains shown)
VH: B1 VH with E64P, P111D
VL: B1 VL
B14: dBBDu183H P100eE/dBBDu072L (antibody, name in Kabat numbering, V domains shown)
VH: B1 VH with E64P, P111E
VL: B1 VL
B15: dBBDu183H P100eF/dBBDu072L (antibody, name in Kabat numbering, V domains shown)
VH: B1 VH with E64P, P111F
VL: B1 VL
B16: dBBDu183H P100eG/dBBDu072L (antibody, name in Kabat numbering, V domains shown)
VH: B1 VH with E64P, P111G
VL: B1 VL
B17: dBBDu183H P100eH/dBBDu072L (antibody, name in Kabat numbering, V domains shown)
VH: B1 VH with E64P, P111H
VL: B1 VL
B18: dBBDu183H P100eK/dBBDu072L (antibody, name in Kabat numbering, V domains shown)
VH: B1 VH with E64P, P111K
VL: B1 VL
B19: dBBDu183H P100eN/dBBDu072L (antibody, name in Kabat numbering, V domains shown)
VH: B1 VH with E64P, P111N
VL: B1 VL
B20: dBBDu183H P100eQ/dBBDu072L (antibody, name in Kabat numbering, V domains shown)
VH: B1 VH with E64P, P111Q
VL: B1 VL
B21: dBBDu183H P100eR/dBBDu072L (antibody, name in Kabat numbering, V domains shown)
VH: B1 VH with E64P, P111R
VL: B1 VL
B22: dBBDu183H P100eS/dBBDu072L (antibody, name in Kabat numbering, V domains shown)
VH: B1 VH with E64P, P111S
VL: B1 VL
B23: dBBDu183H P100eT/dBBDu072L (antibody, name in Kabat numbering, V domains shown)
VH: B1 VH with E64P, P111T
VL: B1 VL
B24: dBBDu183H P100eV/dBBDu072L (antibody, name in Kabat numbering, V domains shown)
VH: B1 VH with E64P, P111V
VL: B1 VL
B25: dBBDu183H P100eW/dBBDu072L (antibody, name in Kabat numbering, V domains shown)
VH: B1 VH with E64P, P111W
VL: B1 VL
B26: dBBDu183H P100eY/dBBDu072L (antibody, name in Kabat numbering, V domains shown)
VH: B1 VH with E64P, P111Y
VL: B1 VL
B27: dBBDu183H S62D/dBBDu072L (antibody, name in Kabat numbering, V domains shown)
VH: B1 VH with E64P, S65D
VL: B1 VL
B28: dBBDu183H S62E/dBBDu072L (antibody, name in Kabat numbering, V domains shown)
VH: B1 VH with E64P, S65E
VL: B1 VL
B29: dBBDu183H S62F/dBBDu072L (antibody, name in Kabat numbering, V domains shown)
VH: B1 VH with E64P, S65F
VL: B1 VL
B30: dBBDu183H S62G/dBBDu072L (antibody, name in Kabat numbering, V domains shown)
VH: B1 VH with E64P, S65G
VL: B1 VL
B31: dBBDu183H S62H/dBBDu072L (antibody, name in Kabat numbering, V domains shown)
VH: B1 VH with E64P, S65H
VL: B1 VL
B32: dBBDu183H S62K/dBBDu072L (antibody, name in Kabat numbering, V domains shown)
VH: B1 VH with E64P, S65K
VL: B1 VL
B33: dBBDu183H S62N/dBBDu072L (antibody, name in Kabat numbering, V domains shown)
VH: B1 VH with E64P, S65N
VL: B1 VL
B34: dBBDu183H S62Q/dBBDu072L (antibody, name in Kabat numbering, V domains shown)
VH: B1 VH with E64P, S65Q
VL: B1 VL
B35: dBBDu183H S62R/dBBDu072L (antibody, name in Kabat numbering, V domains shown)
VH: B1 VH with E64P, S65R
VL: B1 VL
B36: dBBDu183H S62T/dBBDu072L (antibody, name in Kabat numbering, V domains shown)
VH: B1 VH with E64P, S65T
VL: B1 VL
B37: dBBDu183H S62V/dBBDu072L (antibody, name in Kabat numbering, V domains shown)
VH: B1 VH with E64P, S65V
VL: B1 VL
B38: dBBDu183H S62W/dBBDu072L (antibody, name in Kabat numbering, V domains shown)
VH: B1 VH with E64P, S65W
VL: B1 VL
B39: dBBDu183H S62Y/dBBDu072L (antibody, name in Kabat numbering, V domains shown)
VH: B1 VH with E64P, S65Y
VL: B1 VL
B40: dBBDu183H S99D/dBBDu072L (antibody, name in Kabat numbering, V domains shown)
VH: B1 VH with E64P, S105D
VL: B1 VL
B41: dBBDu183H S99E/dBBDu072L (antibody, name in Kabat numbering, V domains shown)
VH: B1 VH with E64P, S105E
VL: B1 VL
B42: dBBDu183H S99F/dBBDu072L (antibody, name in Kabat numbering, V domains shown)
VH: B1 VH with E64P, S105F
VL: B1 VL
B43: dBBDu183H S99G/dBBDu072L (antibody, name in Kabat numbering, V domains shown)
VH: B1 VH with E64P, S105G
VL: B1 VL
B44: dBBDu183H S99H/dBBDu072L (antibody, name in Kabat numbering, V domains shown)
VH: B1 VH with E64P, S105H
VL: B1 VL
B45: dBBDu183H S99K/dBBDu072L (antibody, name in Kabat numbering, V domains shown)
VH: B1 VH with E64P, S105K
VL: B1 VL

Biological target: T1, Human CD3eg linker (human)
T1 construct: single-chain construct; also called recombinant human CD3
T1 chain: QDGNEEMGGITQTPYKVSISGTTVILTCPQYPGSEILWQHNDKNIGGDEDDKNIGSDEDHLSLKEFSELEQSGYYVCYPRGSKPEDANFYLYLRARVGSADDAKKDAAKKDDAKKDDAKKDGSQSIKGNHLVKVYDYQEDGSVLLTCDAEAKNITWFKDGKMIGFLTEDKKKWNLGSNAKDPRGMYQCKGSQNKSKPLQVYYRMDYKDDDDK
Test: SPR, vs unmutated H183/L072

B1 and B2 are the same in “fold change of affinity” value: 1.8 fold for the first, 1.8 fold for the second.

Going from B3 to B4, the “fold change of affinity” value rises from 1.5 fold to 1.8 fold.

Compared with B5, B6 is lower in “fold change of affinity” value: 1.7 fold for the first, 1.5 fold for the second.

First: B7
Second: B8
The “fold change of affinity” value of the first is higher: 1.8 fold for the first, 1.6 fold for the second.

First: B9
Second: B10
The “fold change of affinity” value of the first is higher: 1.3 fold for the first, 1 fold for the second.

Going from B11 to B12, the “fold change of affinity” value rises from 1.8 fold to 1.9 fold.

Going from B13 to B14, the “fold change of affinity” value rises from 0.7 fold to 1 fold.

First: B15
Second: B16
The “fold change of affinity” value of the first is higher: 1.9 fold for the first, 1.6 fold for the second.

Compared with B17, B18 is higher in “fold change of affinity” value: 1.5 fold for the first, 2.1 fold for the second.

Compared with B19, B20 is higher in “fold change of affinity” value: 1.3 fold for the first, 1.5 fold for the second.

First: B21
Second: B22
The “fold change of affinity” value of the first is higher: 2.2 fold for the first, 1.2 fold for the second.

Going from B23 to B24, the “fold change of affinity” value rises from 1.4 fold to 1.5 fold.

Compared with B25, B26 is higher in “fold change of affinity” value: 1.7 fold for the first, 2 fold for the second.

B27 and B28 are the same in “fold change of affinity” value: 1.2 fold for the first, 1.2 fold for the second.

Compared with B29, B30 is lower in “fold change of affinity” value: 1.9 fold for the first, 1.4 fold for the second.

Compared with B31, B32 is higher in “fold change of affinity” value: 1.3 fold for the first, 1.4 fold for the second.

Going from B33 to B34, the “fold change of affinity” value falls from 1.4 fold to 1.3 fold.

First: B35
Second: B36
The “fold change of affinity” value of the first is higher: 1.5 fold for the first, 1.3 fold for the second.

Compared with B37, B38 is higher in “fold change of affinity” value: 1.4 fold for the first, 2 fold for the second.

First: B39
Second: B40
The “fold change of affinity” value of the first is higher: 1.5 fold for the first, 0.3 fold for the second.

First: B41
Second: B42
The “fold change of affinity” value of the first is lower: 0.3 fold for the first, 1 fold for the second.

First: B43
Second: B44
The “fold change of affinity” value of the first is higher: 1 fold for the first, 0.7 fold for the second.

B45 was tested, and the “fold change of affinity” value was 1.8 fold.
